Test results as given in paper PMC3748711, “APP interacts with LRP4 and agrin to coordinate the development of the neuromuscular junction in mice” (eLife, 2013).

B1: APP-Fc (APP695 extracellular domain, residues 1-596, fused to the constant region of human IgG) (Fc fusion, UniProt P12023-2 18-596, looked up)
chain: LEVPTDGNAGLLAEPQIAMFCGKLNMHMNVQNGKWESDPSGTKTCIGTKEGILQYCQEVYPELQITNVVEANQPVTIQNWCKRGRKQCKTHTHIVIPYRCLVGEFVSDALLVPDKCKFLHQERMDVCETHLHWHTVAKETCSEKSTNLHDYGMLLPCGIDKFRGVEFVCCPLAEESDSVDSADAEEDDSDVWWGGADTDYADGGEDKVVEVAEEEEVADVEEEEADDDEDVEDGDEVEEEAEEPYEEATERTTSTATTTTTTTESVEEVVRVPTTAASTPDAVDKYLETPGDENEHAHFQKAKERLEAKHRERMSQVMREWEEAERQAKNLPKADKKAVIQHFQEKVESLEQEAANERQQLVETHMARVEAMLNDRRRLALENYITALQAVPPRPHHVFNMLKKYVRAEQKDRQHTLKHFEHVRMVDPKKAAQIRSQVMTHLRVIYERMNQSLSLLYNVPAVAEEIQDEVDELLQKEQNYSDDVLANMISEPRISYGNDALMPSLTETKTTVELLPVNGEFSLDDLQPWHPFGVDSVPANTENEVEPVDARPAADRGLTTRPGSGLTNIKTEEISEVKM

What was measured:
[1] = target: LRP4 (endogenous, mouse embryonic muscle) (mouse (endogenous in embryonic muscle), UniProt Q8VI56 21-1905); assay: cell-based or functional assay
[2] = target: B1; assay: pull-down; 100 ng purified APP-Fc on Protein A-agarose beads, incubated with 100 ng purified MBP-LRP4LBD and 0-1000 ng neuronal agrin in PBS with 0.1% BSA, 4 hr, 4°C; immunoblot with anti-MBP, anti-agrin, anti-Fc; conditions: both partners purified

Sequence of LRP4 (endogenous, mouse embryonic muscle) (Q8VI56 21-1905): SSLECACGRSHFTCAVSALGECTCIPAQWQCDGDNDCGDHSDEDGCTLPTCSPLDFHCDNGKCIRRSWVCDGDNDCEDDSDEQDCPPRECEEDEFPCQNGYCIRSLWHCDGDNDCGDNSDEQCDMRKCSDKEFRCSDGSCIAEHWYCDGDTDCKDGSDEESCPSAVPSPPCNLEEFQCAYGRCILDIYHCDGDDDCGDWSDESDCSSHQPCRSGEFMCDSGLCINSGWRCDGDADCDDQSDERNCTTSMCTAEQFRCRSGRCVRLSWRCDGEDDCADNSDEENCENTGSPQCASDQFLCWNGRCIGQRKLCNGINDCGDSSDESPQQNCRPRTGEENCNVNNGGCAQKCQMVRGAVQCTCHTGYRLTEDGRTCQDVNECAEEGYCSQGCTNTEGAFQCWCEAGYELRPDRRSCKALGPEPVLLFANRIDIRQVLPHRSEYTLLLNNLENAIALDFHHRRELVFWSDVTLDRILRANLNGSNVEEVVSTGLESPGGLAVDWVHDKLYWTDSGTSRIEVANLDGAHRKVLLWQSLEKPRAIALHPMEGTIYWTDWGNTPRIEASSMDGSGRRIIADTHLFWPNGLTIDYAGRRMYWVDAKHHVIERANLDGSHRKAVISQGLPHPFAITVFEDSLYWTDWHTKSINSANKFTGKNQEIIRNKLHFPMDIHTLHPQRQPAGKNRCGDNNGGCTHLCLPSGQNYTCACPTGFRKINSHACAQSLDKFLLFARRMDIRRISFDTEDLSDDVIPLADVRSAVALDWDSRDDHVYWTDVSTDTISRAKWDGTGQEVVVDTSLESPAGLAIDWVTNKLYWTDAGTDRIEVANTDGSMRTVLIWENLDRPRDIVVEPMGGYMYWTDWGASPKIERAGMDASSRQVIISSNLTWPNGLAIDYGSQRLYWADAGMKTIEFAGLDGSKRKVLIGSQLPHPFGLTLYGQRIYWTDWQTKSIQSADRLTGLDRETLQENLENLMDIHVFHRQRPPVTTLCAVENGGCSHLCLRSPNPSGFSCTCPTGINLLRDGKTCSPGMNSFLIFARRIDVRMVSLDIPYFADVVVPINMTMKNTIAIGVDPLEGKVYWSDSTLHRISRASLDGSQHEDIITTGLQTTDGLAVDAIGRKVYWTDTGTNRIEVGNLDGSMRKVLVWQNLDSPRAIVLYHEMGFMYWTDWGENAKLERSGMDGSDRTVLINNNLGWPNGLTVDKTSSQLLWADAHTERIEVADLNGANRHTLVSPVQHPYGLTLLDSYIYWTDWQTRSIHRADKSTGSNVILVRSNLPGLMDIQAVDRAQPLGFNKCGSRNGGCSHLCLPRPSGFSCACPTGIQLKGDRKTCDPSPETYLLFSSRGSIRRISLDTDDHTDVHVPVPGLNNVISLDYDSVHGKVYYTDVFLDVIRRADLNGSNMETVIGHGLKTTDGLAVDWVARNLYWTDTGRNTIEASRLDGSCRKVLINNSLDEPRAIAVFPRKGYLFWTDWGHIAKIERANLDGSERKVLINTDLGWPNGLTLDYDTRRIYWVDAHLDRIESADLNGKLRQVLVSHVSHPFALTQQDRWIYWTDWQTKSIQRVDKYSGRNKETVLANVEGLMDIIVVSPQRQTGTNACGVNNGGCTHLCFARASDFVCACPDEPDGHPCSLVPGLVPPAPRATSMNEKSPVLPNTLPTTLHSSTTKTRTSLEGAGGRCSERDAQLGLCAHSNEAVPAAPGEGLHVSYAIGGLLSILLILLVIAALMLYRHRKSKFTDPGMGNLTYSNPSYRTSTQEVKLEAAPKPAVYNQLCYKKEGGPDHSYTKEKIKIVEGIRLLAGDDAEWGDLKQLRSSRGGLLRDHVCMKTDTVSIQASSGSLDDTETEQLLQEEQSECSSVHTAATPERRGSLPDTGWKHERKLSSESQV

MuSK tyrosine phosphorylation in myotubes, APP-Fc alone at 1×, 10× or 100× molar concentrations compared to 0.1 nM agrin (0.1-10 nM), 30 min at 37°C, without agrin [1]	fold binding against no agrin, with 10 ng/ml agrin [2]	fold binding against no agrin, with 30 ng/ml agrin [2]	Binder
4.3 fold over baseline			B1
	1.3 fold	3 fold	MBP-LRP4LBD (LRP4 ligand binding domain, aa 27-349, fused to maltose-binding protein) (domain or fragment, mouse, UniProt Q8VI56 27-349, looked up, Species is stated as mouse for the LRP4-Fc construct, not expressly for this one; Vector pMAL-p4x; also called LRP4-MBP; source: E. coli BL21, periplasmic extract, purified on amylose column; not shown: MBP, N-terminal, kept) CGRSHFTCAVSALGECTCIPAQWQCDGDNDCGDHSDEDGCTLPTCSPLDFHCDNGKCIRRSWVCDGDNDCEDDSDEQDCPPRECEEDEFPCQNGYCIRSLWHCDGDNDCGDNSDEQCDMRKCSDKEFRCSDGSCIAEHWYCDGDTDCKDGSDEESCPSAVPSPPCNLEEFQCAYGRCILDIYHCDGDDDCGDWSDESDCSSHQPCRSGEFMCDSGLCINSGWRCDGDADCDDQSDERNCTTSMCTAEQFRCRSGRCVRLSWRCDGEDDCADNSDEENCENTGSPQCASDQFLCWNGRCIGQRKLCNGINDCGDSSDESPQQNC
